Measurements reported in patent US20040192898A1 (published 2004).

Biological target: T1, Amyloid-beta 1-42 (UniProt P05067 672-713)
T1 construct: domain: Amyloid-beta 1-42; Bought peptide; 1-42 counts on the Aβ peptide, not on APP; also called Aβ1-42
Assay: SPR, BIAcore 2000; antibody captured, Aβ flowed over
Procedure: Antibody affinity (KD=Kd/Ka) was determined using a BlAcore biosensor 2000 and data analyzed with BlAevaluation (v. 3.1) software. A capture antibody (rabbit anti-mouse) was coupled via free amine groups to carboxyl groups on flow cell 2 of a biosensor chip (CM5) using N-ethyl-N-dimethylaminopropyl carbodiimide and N-hydroxysuccinimide (EDC/NHS). A non-specific rabbit IgG was coupled to flow cell 1 as a background control. Monoclonal antibodies were captured to yield 300 resonance units (RU). […] To regenerate the chip, bound anti-Aβ antibody was eluted from the chip using a wash with glycine-HCI (pH 2). A control injection containing no amyloid-beta served as a control for baseline subtraction.

T1 sequence (P05067 672-713 limits assumed): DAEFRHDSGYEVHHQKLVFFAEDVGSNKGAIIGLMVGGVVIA

Kd: 4 pM
B1: Humanized 266 antibody (antibody, human IgG1, kappa, V domains shown)
VH: EVQLVESGGGLVQPGGSLRLSCAASGFTFSRYSMSWVRQAPGKGLELVAQINSVGNSTYYPDTVKGRFTISRDNAKNTLYLQMNSLRAEDTAVYYCASGDYWGQGTLVTVSS
VL: DVVMTQSPLSLPVTLGQPASISCRSSQSLIYSDGNAYLHWFLQKPGQSPRLLIYKVSNRFSGVPDRFSGSGSGTDFTLKISRVEAEDVGVYYCSQSTHVPWTFGQGTKVEIKR
modifications: N-glycosylated at Asn 56 (fully) and Asn 292
notes: Human IgG1 (pVg1) / kappa, expressed in Sp2/0; also called Hu266
